Measurements as given in publication PMC10017365, “Functional characterization of Vip3Aa from Bacillus thuringiensis reveals the contributions of specific domains to its insecticidal activity” (The Journal of Biological Chemistry, 2023).

Experiments:
[1] = biological target: Vip3Aa (full-length Vip3Aa protoxin, from Bacillus thuringiensis 9816C) (Bacillus thuringiensis 9816C); test: SEC + other: dynamic light scattering; purified proteins on a Superdex 200 Increase 10/300 GL column; DLS of the same proteins (Fig. S2A)
[2] = biological target: Vip3Aa DI-DIII (domain I to domain III truncation variant, untreated) (Bacillus thuringiensis 9816C); test: SEC; trypsin-treated proteins (1:50 wt:wt, 4 °C, 6 h) on Superdex 200 Increase 10/300 GL, peak fractions analysed by SDS-PAGE; untreated DI-DIV and DI-DIII as controls
[3] = biological target: trypsin-activated Vip3Aa DI-DIII (DI-DIII^act) (Bacillus thuringiensis 9816C); test: as above

## Vip3Aa (full-length Vip3Aa protoxin, from Bacillus thuringiensis 9816C) (natural protein)
[1]
  stoichiometry N: 4

## Vip3Aa DI-DIII (domain I to domain III truncation variant, untreated) (domain or fragment)
[2]
  stoichiometry N: 4

## trypsin-activated Vip3Aa DI-DIII (DI-DIII^act) (complex)
[3]
  stoichiometry N: 4
